Positions count from the first letter of the chain named. Each block holds one binder with its values, some of them ahead of it.
Columns and labels:
[1] = target: endogenous TFPI of normal human plasma (human, UniProt P10646 29-304, limits assumed); test: cell-based or functional assay
[2] = target: T1, human TFPI alpha (full-length TFPIα) (human, UniProt P10646 29-304); test: cell-based or functional assay
[3] = target: T1, human TFPI alpha (full-length TFPIα); test: SPR (Biacore T200), Fab captured on Human Fab Binder, TFPIα in solution, 1:1 fit
Excerpt: Binding interaction analysis was obtained by Surface Plasmon Resonance in a Biacore T200 instrument. Human Fab Binder (Human Fab Capture Kit, GE Healthcare) was immobilized to a series S CM4 sensor chip (GE Healthcare) in flow-cells 1-4 at 10000 response units (RU) using the amine coupling protocol available within the Biacore T-200 control software (GE Healthcare) and the reagents provided with the Amine Coupling Kit (GE Healthcare).The relevant Fab fragment or Fab-Fab conjugate was captured in flow-cell 2, 3 or 4 at a fixed concentration. Different concentrations of TFPI were tested by diluting TFPI in the running buffer (10 mM Hepes, pH 7.4, 300 mM NaCl, 5 mM CaCl₂, 0.05% Surfactant P20, 1 mg/ml BSA). Each sample was assayed using 300 seconds of contact time followed by 600 seconds of dissociation time at 50 μl/min flow rate. A buffer blank was also assayed. The sensor surface was regenerated with 10 mM Glycine pH 2.1 with two cycles each of 30 seconds at 50 μl/min flow rate.
Biacore T200 Evaluation software was used to analyse the data. Determination of binding constants (kₒₙ, koff, KD) was obtained assuming a 1:1 interaction of TFPI and the Fab variant or Fab-Fab conjugate of interest.

[4] = target: T1, human TFPI alpha (full-length TFPIα); test: cell-based or functional assay; remark: listed apart in the source

B2: Fab 0094 (Fab fragment of mAb 2007) (Fab, V domains shown)
VH: EVQLVESGGGLVKPGGSLRLSCAASGFTFSNYAMSWVRQAPGKGLEWVSTISRSGSYSYYPDSVKGRFTISRDNAKNSLYLQMNSLRAEDTAVYYCARLGGYDEGDAMDSWGQGTTVTVSS
VL: DIVMTQTPLSLSVTPGQPASISCKSSQSLLESDGKTYLNWYLQKPGQSPQLLIYLVSILDSGVPDRFSGSGSGTDFTLKISRVEAEDVGVYYCLQATHFPQTFGGGTKVEIKR
notes: KPI-2 specific
thrombin peak (nM) at 6.25 nM, FVIII-neutralised plasma, endogenous TFPI [1]: 35.9 nM
thrombin peak (nM) at 12.5 nM, FVIII-neutralised plasma, endogenous TFPI [1]: 45 nM
thrombin peak (nM) at 25.0 nM, FVIII-neutralised plasma, endogenous TFPI [1]: 60.2 nM
thrombin peak (nM) at 50.0 nM, FVIII-neutralised plasma, endogenous TFPI [1]: 73.9 nM
thrombin peak (nM) at 100 nM, FVIII-neutralised plasma, endogenous TFPI [1]: 74.1 nM
thrombin peak (nM) at 6.25 nM, FVIII-neutralised plasma + 2 nM TFPIα [2]: 5.9 nM
thrombin peak (nM) at 12.5 nM, FVIII-neutralised plasma + 2 nM TFPIα [2]: 10.6 nM
thrombin peak (nM) at 25.0 nM, FVIII-neutralised plasma + 2 nM TFPIα [2]: 14.3 nM
thrombin peak (nM) at 50.0 nM, FVIII-neutralised plasma + 2 nM TFPIα [2]: 18.9 nM
thrombin peak (nM) at 100 nM, FVIII-neutralised plasma + 2 nM TFPIα [2]: 20.3 nM
Kd [3]: 4.4 nM
koff [3]: 0.00066 s⁻¹
kon [3]: 150000 M⁻¹ s⁻¹

B3: Fab 0095 (Fab fragment of mAb 2014) (Fab, V domains shown)
VH: B2 VH with P61A
VL: B2 VL with Y41L, K44R, Q47E, Q50K
notes: KPI-2 specific
thrombin peak (nM) at 6.25 nM, FVIII-neutralised plasma, endogenous TFPI [1]: 74.2 nM
thrombin peak (nM) at 12.5 nM, FVIII-neutralised plasma, endogenous TFPI [1]: 81.3 nM
thrombin peak (nM) at 25.0 nM, FVIII-neutralised plasma, endogenous TFPI [1]: 84.9 nM
thrombin peak (nM) at 50.0 nM, FVIII-neutralised plasma, endogenous TFPI [1]: 85.4 nM
thrombin peak (nM) at 100 nM, FVIII-neutralised plasma, endogenous TFPI [1]: 84.7 nM
thrombin peak (nM) at 6.25 nM, FVIII-neutralised plasma + 2 nM TFPIα [2]: 13.3 nM
thrombin peak (nM) at 12.5 nM, FVIII-neutralised plasma + 2 nM TFPIα [2]: 19.4 nM
thrombin peak (nM) at 25.0 nM, FVIII-neutralised plasma + 2 nM TFPIα [2]: 22.4 nM
thrombin peak (nM) at 50.0 nM, FVIII-neutralised plasma + 2 nM TFPIα [2]: 25.1 nM
thrombin peak (nM) at 100 nM, FVIII-neutralised plasma + 2 nM TFPIα [2]: 24.6 nM
Kd [3]: 0.78 nM
koff [3]: 0.003 s⁻¹
kon [3]: 3.9e+06 M⁻¹ s⁻¹

B4: Fab 0313 (Fab fragment of mAb 2000) (Fab, V domains shown)
VH: B2 VH with P61A
VL: B2 VL
notes: Fab of the initial grafted HzTFPI4F36; KPI-2 specific
Kd [3]: 42 nM
koff [3]: 0.0021 s⁻¹
kon [3]: 49000 M⁻¹ s⁻¹

B5: Fab 0088 (Fab fragment of mAb 2021) (Fab, V domains shown)
VH: B2 VH with A40T, G42E, G44R, S49A, Y60F, K65Q
VL: B2 VL
notes: free C-terminal cysteine; KPI-2 specific
thrombin peak (nM) at 6.25 nM, FVIII-neutralised plasma, endogenous TFPI [1]: 96.8 nM
thrombin peak (nM) at 12.5 nM, FVIII-neutralised plasma, endogenous TFPI [1]: 98.1 nM
thrombin peak (nM) at 25.0 nM, FVIII-neutralised plasma, endogenous TFPI [1]: 102 nM
thrombin peak (nM) at 50.0 nM, FVIII-neutralised plasma, endogenous TFPI [1]: 101 nM
thrombin peak (nM) at 100 nM, FVIII-neutralised plasma, endogenous TFPI [1]: 87.7 nM
thrombin peak (nM) at 6.25 nM, FVIII-neutralised plasma + 2 nM TFPIα [2]: 38.4 nM
thrombin peak (nM) at 12.5 nM, FVIII-neutralised plasma + 2 nM TFPIα [2]: 64.2 nM
thrombin peak (nM) at 25.0 nM, FVIII-neutralised plasma + 2 nM TFPIα [2]: 69.8 nM
thrombin peak (nM) at 50.0 nM, FVIII-neutralised plasma + 2 nM TFPIα [2]: 67.7 nM
thrombin peak (nM) at 100 nM, FVIII-neutralised plasma + 2 nM TFPIα [2]: 48.1 nM
Kd [3]: 0.06 nM
koff [3]: 0.0001 s⁻¹
kon [3]: 1.7e+06 M⁻¹ s⁻¹

B6: mAb 2F35 (antibody, V domains shown)
VH: EVQLQQSGAELVRPGALVKLSCKASGFNIKDYYIHWVKQRPEQGLEWIGWIDPENGNTIFDPKFQGRASITADTSSNTAYLQLSSLTSEDTAVYYCAGRWYAMDYWGQGTSVTVSS
VL: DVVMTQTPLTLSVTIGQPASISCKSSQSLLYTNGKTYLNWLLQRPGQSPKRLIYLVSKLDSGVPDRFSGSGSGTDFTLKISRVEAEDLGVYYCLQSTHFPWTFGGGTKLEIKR
lag time (min), 200 nM mAb (2 x 100 nM), FVIII-neutralised plasma + 20 nM TFPIα [4]: 0 min
thrombin peak (nM), 200 nM mAb (2 x 100 nM), FVIII-neutralised plasma + 20 nM TFPIα [4]: 0 nM
ttPeak (min), 200 nM mAb (2 x 100 nM), FVIII-neutralised plasma + 20 nM TFPIα [4]: 0 min

Further lines, results first:

thrombin peak (nM) at 6.25 nM, FVIII-neutralised plasma, endogenous TFPI [1]: 113 nM
thrombin peak (nM) at 12.5 nM, FVIII-neutralised plasma, endogenous TFPI [1]: 114 nM
thrombin peak (nM) at 25.0 nM, FVIII-neutralised plasma, endogenous TFPI [1]: 116 nM
thrombin peak (nM) at 50.0 nM, FVIII-neutralised plasma, endogenous TFPI [1]: 118 nM
thrombin peak (nM) at 100 nM, FVIII-neutralised plasma, endogenous TFPI [1]: 118 nM
thrombin peak (nM) at 6.25 nM, FVIII-neutralised plasma + 2 nM TFPIα [2]: 48.9 nM
thrombin peak (nM) at 12.5 nM, FVIII-neutralised plasma + 2 nM TFPIα [2]: 61.7 nM
thrombin peak (nM) at 25.0 nM, FVIII-neutralised plasma + 2 nM TFPIα [2]: 68.4 nM
thrombin peak (nM) at 50.0 nM, FVIII-neutralised plasma + 2 nM TFPIα [2]: 73.4 nM
thrombin peak (nM) at 100 nM, FVIII-neutralised plasma + 2 nM TFPIα [2]: 58.6 nM
B1: mAb 2021 (antibody, human IgG4 S228P, kappa, V domains shown)
VH: B2 VH with A40T, G42E, G44R, S49A, Y60F, K65Q
VL: B2 VL

lag time (min), 200 nM mAb (2 x 100 nM), FVIII-neutralised plasma + 20 nM TFPIα [4]: 0 min
thrombin peak (nM), 200 nM mAb (2 x 100 nM), FVIII-neutralised plasma + 20 nM TFPIα [4]: 0 nM
ttPeak (min), 200 nM mAb (2 x 100 nM), FVIII-neutralised plasma + 20 nM TFPIα [4]: 0 min
B7: mAb 4F110 (antibody, human IgG4 S228P, kappa, V domains shown)
VH: QVQLQQSGAELVKPGASVKLSCKASGYTFISYYMYWVKQRPGQGLEWIGEINPSNGDTNLNEKFKSKATLTVDKSSSTVYMQLSSLTSEDSAVYYCTRWDRFDGFVYWGQGTLVTVSA
VL: ETTVTQSPASLSMAIGGKVTIRCIISTNIDDDINWYQQKPGEPPKLLISEGNTLRPGVPSRFSSSGYGTDFVFTIENMLSEDVADYYCLQSDDLPYTFGGGTKLEIKR

Reference: patent US20180208675A1 (Novo Nordisk, published 2018)
